Experimental findings from paper PMC3664820 (Nucleic Acids Research, 2013) are described below.

The data set concerns the molecule itself. As to the kind of experiment: SEC.

B1: Lac repressor (first 331 residues, dimeric, without the C-terminal tetramerization domain) (domain or fragment)
chain: MKPVTLYDVAEYAGVSYQTVSRVVNQASHVSAKTREKVEAAMAELNYIPNRVAQQLAGKQSLLIGVATSSLALHAPSQIVAAIKSRADQLGASVVVSMVERSGVEACKAAVHNLLAQRVSGLIINYPLDDQDAIAVEAACTNVPALFLDVSDQTPINSIIFSHEDGTRLGVEHLVALGHQQIALLAGPLSSVSARLRLAGWHKYLTRNQIQPIAEREGDWSAMSGFQQTMQMLNEGIVPTAMLVANDQMALGAMRAITESGLRVGADISVVGYDDTEDSSCYIPPLTTIKQDFRLLGQTSVDRLLQLSQGQAVKGNQLLPVSLVKRKTTLA
On to B1, for which the binding result is “binds”.
